Measured values: article PMC9460513, “The 5′-phosphate enhances the DNA-binding and exonuclease activities of human mitochondrial genome maintenance exonuclease 1 (MGME1)”

T1: MGME1 (Homo sapiens, UniProt Q9BQP7 21-344)
T1 sequence: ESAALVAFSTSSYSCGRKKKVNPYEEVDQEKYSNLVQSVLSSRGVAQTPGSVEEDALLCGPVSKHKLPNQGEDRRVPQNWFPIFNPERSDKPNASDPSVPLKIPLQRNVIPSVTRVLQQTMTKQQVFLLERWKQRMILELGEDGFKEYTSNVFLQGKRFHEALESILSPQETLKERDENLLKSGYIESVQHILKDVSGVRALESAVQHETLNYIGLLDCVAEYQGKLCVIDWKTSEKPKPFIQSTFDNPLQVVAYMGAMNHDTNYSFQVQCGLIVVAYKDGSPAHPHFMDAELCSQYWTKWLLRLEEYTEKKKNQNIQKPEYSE

B1: T20(3')-5'p (ssDNA)
DNA: TTTTTTTTTTTTTTTTTTTT
modifications: 5'-phosphate
B2: T10(3')-5'dSp (ssDNA)
DNA: TTTTTTTTTT
modifications: 5'-phosphate-tetrahydrofuran (abasic) before T10
B3: T20(3') (ssDNA)
DNA: TTTTTTTTTTTTTTTTTTTT
B4: T10(3') (ssDNA)
DNA: TTTTTTTTTT
B5: T10(3')-5'p (ssDNA)
DNA: TTTTTTTTTT
modifications: 5'-phosphate
B6: A20(5') (ssDNA)
DNA: AAAAAAAAAAAAAAAAAAAA
modifications: 5' phosphate linkage of the FAM label
B7: T20(5') (ssDNA)
DNA: TTTTTTTTTTTTTTTTTTTT
modifications: 5' phosphate linkage of the FAM label
B8: T10(5') (ssDNA)
DNA: TTTTTTTTTT
modifications: 5' phosphate linkage of the FAM label
B9: T20 (unlabeled) (ssDNA)
DNA: TTTTTTTTTTTTTTTTTTTT

Target: T1, MGME1
Assay: fluorescence polarization; 10 mM EDTA; FP: 2 nM FAM-ssDNA, 20 mM Hepes pH 8.0 (at 37 C), 100 mM NaCl, 0.1 mg/ml BSA, 1 mM DTT, 10 mM EDTA, mixed at room temperature, 15 min; EMSA: 1 uM ssDNA, 20 mM Hepes pH 8.0, 100 mM NaCl, 1 mM DTT, 10 mM EDTA, room temperature 15 min, gel 0.35x TBE at 4 C
Conditions: protein: recombinant; tags: His-SUMO tag removed by Ulp1; label: 3'-6FAM; single strand

| Binder | Kd |
| --- | --- |
| B1 | 180 ± 5 nM |
| B2 | 340 ± 24 nM |
| B3 | 330 ± 83 nM |
| B4 | 7500 ± 890 nM |
| B5 | 1600 ± 75 nM |

Same assay, conditions: protein: recombinant; tags: His-SUMO tag removed by Ulp1; label: 5'-6FAM; single strand

| Binder | Kd |
| --- | --- |
| B6 | 1300 ± 170 nM |
| B7 | 240 ± 36 nM |
| B8 | 600 ± 150 nM |

Target: T1, MGME1
Assay: competition (fluorescence polarization); 10 mM EDTA; 140 nM MGME1 with 2 nM T20(5') preformed; FP: 2 nM FAM-ssDNA, 20 mM Hepes pH 8.0 (at 37 C), 100 mM NaCl, 0.1 mg/ml BSA, 1 mM DTT, 10 mM EDTA, mixed at room temperature, 15 min; EMSA: 1 uM ssDNA, 20 mM Hepes pH 8.0, 100 mM NaCl, 1 mM DTT, 10 mM EDTA, room temperature 15 min, gel 0.35x TBE at 4 C
Conditions: protein: recombinant; tags: His-SUMO tag removed by Ulp1; single strand

| Binder | Kd |
| --- | --- |
| B9 | 250 ± 33 nM |
